Test results reported in US20100310549A1 (Bristol-Myers Squibb, published 2010).

Molecular target: T1, full-length human KDR on CHO-KDR cells (human, UniProt P35968 20-1356)
T1 construct: whole, on cells; stably transfected CHO-K1 cells
Assay: flow cytometry on CHO-KDR cells, His6-tagged protein, anti-His6 MAb and Alexa Fluor 488 anti-mouse antibody
Experimental: Binding of fibronectin-based scaffold protein to cell-surface KDR and Flk-1 was analyzed simultaneously on VEGF-R2-expressing and control cells by flow cytometry. CHO-pcDNA3 cells (control) were released from their dishes with trypsin-EDTA, washed in Dulbecco's PBS without calcium and magnesium (D-PBS⁻; Invitrogen), and stained for 30 minutes at 37° C. with 1.5 μM CMTMR (5-(and-6)-(((4-chloromethyl)benzoyl)amino)-tetramethylrhodamine) (Molecular Probes). The cells were washed in D-PBS⁻ and incubated for a further 30 minutes at 37° C., and then resuspended in blocking buffer (D-PBS710% fetal bovine serum) on ice. CHO-KDR or CHO-Flk cells were treated identically except that CMTMR was omitted. […] For cells treated with an anti-KDR mouse monoclonal antibody (Accurate Chemical, Westbury, N.Y.) or an anti-flk-1 goat polyclonal antibody (R&D Systems), the anti-His₆ step was omitted, and antibody binding was detected with the species-appropriate Alexa Fluor 488 conjugated secondary antibody (Molecular Probes). Following staining, cells were resuspended in 200 μl/well D-PBS⁻/1% FBS/1 μg/ml 7-aminoactinomycin D (7-AAD; Molecular Probes) and analyzed by flow cytometry on a FACSCalibur (Becton Dickinson, San Jose, Calif.) equipped with a […]. […]

T1 sequence (P35968 20-1356): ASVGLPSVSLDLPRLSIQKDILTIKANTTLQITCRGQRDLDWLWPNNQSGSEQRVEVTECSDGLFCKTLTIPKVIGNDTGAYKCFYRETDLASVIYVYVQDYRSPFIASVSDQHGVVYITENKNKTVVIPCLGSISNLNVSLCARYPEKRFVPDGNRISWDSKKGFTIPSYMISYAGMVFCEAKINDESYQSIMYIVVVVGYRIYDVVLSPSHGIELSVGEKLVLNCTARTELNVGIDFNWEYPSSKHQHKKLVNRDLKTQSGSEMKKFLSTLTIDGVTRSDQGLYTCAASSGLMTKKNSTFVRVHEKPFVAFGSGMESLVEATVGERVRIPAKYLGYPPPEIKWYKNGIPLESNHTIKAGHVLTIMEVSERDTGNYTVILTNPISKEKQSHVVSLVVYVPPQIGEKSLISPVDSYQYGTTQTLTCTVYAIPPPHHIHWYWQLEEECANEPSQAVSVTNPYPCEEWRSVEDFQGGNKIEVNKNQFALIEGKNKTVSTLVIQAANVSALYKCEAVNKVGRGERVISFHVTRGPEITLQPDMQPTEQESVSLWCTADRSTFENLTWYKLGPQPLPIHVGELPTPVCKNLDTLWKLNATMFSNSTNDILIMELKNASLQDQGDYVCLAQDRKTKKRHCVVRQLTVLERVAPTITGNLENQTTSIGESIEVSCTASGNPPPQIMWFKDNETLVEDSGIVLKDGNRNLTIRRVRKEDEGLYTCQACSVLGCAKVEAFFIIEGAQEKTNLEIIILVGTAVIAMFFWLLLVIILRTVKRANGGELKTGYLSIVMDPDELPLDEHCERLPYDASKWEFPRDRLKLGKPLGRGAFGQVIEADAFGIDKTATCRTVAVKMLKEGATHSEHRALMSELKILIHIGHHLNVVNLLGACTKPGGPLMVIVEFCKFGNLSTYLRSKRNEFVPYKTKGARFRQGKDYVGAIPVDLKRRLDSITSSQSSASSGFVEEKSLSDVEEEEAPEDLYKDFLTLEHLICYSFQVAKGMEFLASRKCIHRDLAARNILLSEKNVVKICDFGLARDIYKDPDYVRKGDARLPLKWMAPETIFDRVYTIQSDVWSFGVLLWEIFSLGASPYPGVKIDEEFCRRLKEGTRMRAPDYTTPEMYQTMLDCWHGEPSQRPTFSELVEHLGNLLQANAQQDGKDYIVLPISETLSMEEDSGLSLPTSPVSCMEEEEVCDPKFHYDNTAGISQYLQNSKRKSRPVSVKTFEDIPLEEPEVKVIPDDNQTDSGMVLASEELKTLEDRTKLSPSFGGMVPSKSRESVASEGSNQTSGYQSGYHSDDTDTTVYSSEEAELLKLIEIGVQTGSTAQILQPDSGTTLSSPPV

B1: WT fibronectin-based scaffold protein (wild-type 10Fn3), E. coli, His6 (other)
chain: VSDVPRDLEVVAATPTSLLISWDAPAVTVRYYRITYGETGGNSPVQEFTVPGSKSTATISGLKPGVDYTITGYAVTGRGDSPASSKPISINYRTEIDKPSQHHHHHH
notes: E. coli-expressed soluble form; N-terminal Met not described
B1: no binding (tested: log[M] about -6.9 (about 1e-7 M)).
